We go through one molecule from publication PMC4986862.

In this assay the target is BD–PTLΔC1 (PETAL LOSS with the C-terminal activation region removed, fused to the GAL4 binding domain) (Arabidopsis thaliana). As to the kind of experiment: two-hybrid; quantitative: α-galactosidase activity of the MEL1 reporter in liquid cultures, triplicate technical assays; BD–PTLΔC1 bait.

B1: AD–AKIN11 (full-length AKIN11 fused to the GAL4 activation domain) (natural protein)
chain: MDHSSNRFGNNGVESILPNYKLGKTLGIGSFGKVKIAEHVVTGHKVAIKILNRRKIKNMEMEEKVRREIKILRLFMHPHIIRQYEVIETTSDIYVVMEYVKSGELFDYIVEKGRLQEDEARNFFQQIISGVEYCHRNMVVHRDLKPENLLLDSRCNIKIADFGLSNVMRDGHFLKTSCGSPNYAAPEVISGKLYAGPEVDVWSCGVILYALLCGTLPFDDENIPNLFKKIKGGIYTLPSHLSSEARDLIPRMLIVDPVKRITIPEIRQHRWFQTHLPRYLAVSPPDTVEQAKKINEEIVQEVVNMGFDRNQVLESLRNRTQNDATVTYYLLLDNRFRVPSGYLESEFQETTDSGSNPMRTPEAGASPVGHWIPAHVDHYGLGARSQVPVDRKWALGLQSHAHPREIMNEVLKALQELNVCWKKIGHYNMKCRWVPGLADGQNTMVNNQLHFRDESSIIEDDCAMTSPTVIKFELQLYKAREEKYLLDIQRVNGPQFLFLDLCAAFLTELRVI
With B1, the fold lower reporter (α-galactosidase) activation than AD–AKIN10 is greater than 10 fold.
